Measurements: PMC9482650, “Quantitative fragmentomics allow affinity mapping of interactomes” (Nature Communications, 2022)

T1: GRIP1_3, Q9Y3R0
T1 sequence (Q9Y3R0 247-346, limits assumed, looked up): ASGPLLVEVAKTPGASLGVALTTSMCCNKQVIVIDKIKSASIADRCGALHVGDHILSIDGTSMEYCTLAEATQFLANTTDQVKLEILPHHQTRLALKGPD

T2: GRIP1_5, Q9Y3R0
T2 sequence (Q9Y3R0 568-668, limits assumed, looked up): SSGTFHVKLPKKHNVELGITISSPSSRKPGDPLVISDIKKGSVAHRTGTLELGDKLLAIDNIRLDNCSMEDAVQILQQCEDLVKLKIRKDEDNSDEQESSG

T3: APBA3_1, O96018
T3 sequence (O96018 389-490, limits assumed, looked up): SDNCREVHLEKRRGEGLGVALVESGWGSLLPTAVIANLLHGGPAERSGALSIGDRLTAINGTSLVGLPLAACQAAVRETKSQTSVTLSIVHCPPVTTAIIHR

T4: DFNB31_1, Q9P202
T4 sequence (Q9P202 135-233, limits assumed, looked up): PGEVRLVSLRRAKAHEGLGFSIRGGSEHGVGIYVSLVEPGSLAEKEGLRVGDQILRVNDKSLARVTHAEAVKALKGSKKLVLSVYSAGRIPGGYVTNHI

T5: PDZRN3_1, Q9UPQ7
T5 sequence (Q9UPQ7 244-349, limits assumed, looked up): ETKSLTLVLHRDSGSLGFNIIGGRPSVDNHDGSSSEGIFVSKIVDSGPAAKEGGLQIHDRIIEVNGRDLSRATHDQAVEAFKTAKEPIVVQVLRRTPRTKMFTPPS

T6: SNTB1, Q13884
T6 sequence (Q13884 107-205, limits assumed, looked up): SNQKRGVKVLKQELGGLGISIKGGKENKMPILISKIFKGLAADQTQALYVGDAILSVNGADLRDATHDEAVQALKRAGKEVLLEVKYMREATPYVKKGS

T7: TX1BP3, O14907
T7 sequence (O14907 10-122, limits assumed, looked up): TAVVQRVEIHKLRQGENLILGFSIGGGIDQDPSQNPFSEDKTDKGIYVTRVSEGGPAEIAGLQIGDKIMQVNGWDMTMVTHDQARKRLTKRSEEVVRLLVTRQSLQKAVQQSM

T8: RADIL, Q96JH8
T8 sequence (Q96JH8 971-1071, limits assumed, looked up): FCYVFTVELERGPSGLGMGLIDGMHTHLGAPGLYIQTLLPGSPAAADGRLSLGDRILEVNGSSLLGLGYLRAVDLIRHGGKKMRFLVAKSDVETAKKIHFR

B1: ZNF599, Q96NL3 (peptide)
chain: THHRKIHTRV

Target: SCRIB_3, Q14160
Sequence (Q14160 999-1103): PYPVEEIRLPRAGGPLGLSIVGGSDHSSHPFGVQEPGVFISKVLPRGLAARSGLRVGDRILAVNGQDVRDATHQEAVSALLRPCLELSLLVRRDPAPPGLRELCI
Test: holdup assay
Parameters: key: below the threshold = too weak to quantify, mostly under pKd 3.1 to 4
Details: plain residues with an end cap or a label only (N-terminal biotin on a linker: ado-ado)

Row | Binder | pKd
1 | B1 | 3.75

Target: T1, GRIP1_3, Q9Y3R0
Test: holdup assay
Parameters: key: below the threshold = too weak to quantify, mostly under pKd 3.1 to 4
Details: plain residues with an end cap or a label only (N-terminal biotin on a linker: ado-ado)

Row | Binder | pKd
2 | B1 | below the threshold

Target: T2, GRIP1_5, Q9Y3R0
Test: holdup assay
Parameters: key: below the threshold = too weak to quantify, mostly under pKd 3.1 to 4
Details: plain residues with an end cap or a label only (N-terminal biotin on a linker: ado-ado)

Row | Binder | pKd
3 | B1 | below the threshold

Target: GRIP2_7, Q9C0E4
Sequence (Q9C0E4 934-1023): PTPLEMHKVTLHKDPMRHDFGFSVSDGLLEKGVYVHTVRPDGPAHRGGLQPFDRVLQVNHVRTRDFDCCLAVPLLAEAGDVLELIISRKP
Test: holdup assay
Parameters: key: below the threshold = too weak to quantify, mostly under pKd 3.1 to 4
Details: plain residues with an end cap or a label only (N-terminal biotin on a linker: ado-ado)

Row | Binder | pKd
4 | B1 | 3.66

Target: LNX1_3, Q8TBB1
Sequence (Q8TBB1 500-596): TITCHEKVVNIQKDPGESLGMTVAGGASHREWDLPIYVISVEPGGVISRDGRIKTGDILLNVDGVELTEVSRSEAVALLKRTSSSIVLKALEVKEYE
Test: holdup assay
Parameters: key: below the threshold = too weak to quantify, mostly under pKd 3.1 to 4
Details: plain residues with an end cap or a label only (N-terminal biotin on a linker: ado-ado)

Row | Binder | pKd
5 | B1 | below the threshold

Target: DLG4_3, P78352
Sequence (P78352 306-403): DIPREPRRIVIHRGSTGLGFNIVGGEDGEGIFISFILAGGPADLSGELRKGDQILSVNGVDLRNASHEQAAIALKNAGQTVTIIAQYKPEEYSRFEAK
Test: holdup assay
Parameters: key: below the threshold = too weak to quantify, mostly under pKd 3.1 to 4
Details: plain residues with an end cap or a label only (N-terminal biotin on a linker: ado-ado)

Row | Binder | pKd
6 | B1 | 4.38

Target: T3, APBA3_1, O96018
Test: holdup assay
Parameters: key: below the threshold = too weak to quantify, mostly under pKd 3.1 to 4
Details: plain residues with an end cap or a label only (N-terminal biotin on a linker: ado-ado)

Row | Binder | pKd
7 | B1 | below the threshold

Target: DLG5_1, Q8TDM6
Sequence (Q8TDM6 617-713): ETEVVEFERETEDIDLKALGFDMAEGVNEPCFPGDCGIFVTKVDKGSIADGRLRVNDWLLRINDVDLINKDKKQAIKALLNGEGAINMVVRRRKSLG
Test: holdup assay
Parameters: key: below the threshold = too weak to quantify, mostly under pKd 3.1 to 4
Details: plain residues with an end cap or a label only (N-terminal biotin on a linker: ado-ado)

Row | Binder | pKd
8 | B1 | 3.72

Target: LNX1_2, Q8TBB1
Sequence (Q8TBB1 371-470): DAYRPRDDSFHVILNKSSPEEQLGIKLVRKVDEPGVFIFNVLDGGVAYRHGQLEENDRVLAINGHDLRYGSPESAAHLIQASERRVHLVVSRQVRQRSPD
Test: holdup assay
Parameters: key: below the threshold = too weak to quantify, mostly under pKd 3.1 to 4
Details: plain residues with an end cap or a label only (N-terminal biotin on a linker: ado-ado)

Row | Binder | pKd
9 | B1 | 3.5

Target: T4, DFNB31_1, Q9P202
Test: holdup assay
Parameters: key: below the threshold = too weak to quantify, mostly under pKd 3.1 to 4
Details: plain residues with an end cap or a label only (N-terminal biotin on a linker: ado-ado)

Row | Binder | pKd
10 | B1 | 3.82

Target: T5, PDZRN3_1, Q9UPQ7
Test: holdup assay
Parameters: key: below the threshold = too weak to quantify, mostly under pKd 3.1 to 4
Details: plain residues with an end cap or a label only (N-terminal biotin on a linker: ado-ado)

Row | Binder | pKd
11 | B1 | 3.75

Target: GORASP1, Q9BQQ3
Sequence (Q9BQQ3 1-208): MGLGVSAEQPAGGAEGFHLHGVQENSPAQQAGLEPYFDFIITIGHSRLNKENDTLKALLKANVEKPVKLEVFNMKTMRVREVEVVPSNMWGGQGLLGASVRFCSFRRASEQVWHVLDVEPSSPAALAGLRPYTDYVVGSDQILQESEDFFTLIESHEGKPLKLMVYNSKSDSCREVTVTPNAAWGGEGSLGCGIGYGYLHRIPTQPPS
Test: holdup assay
Parameters: key: below the threshold = too weak to quantify, mostly under pKd 3.1 to 4
Details: plain residues with an end cap or a label only (N-terminal biotin on a linker: ado-ado)

Row | Binder | pKd
12 | B1 | 3.87

Target: T6, SNTB1, Q13884
Test: holdup assay
Parameters: key: below the threshold = too weak to quantify, mostly under pKd 3.1 to 4
Details: plain residues with an end cap or a label only (N-terminal biotin on a linker: ado-ado)

Row | Binder | pKd
13 | B1 | 4.36

Target: GIPC2, Q8TF65
Sequence (Q8TF65 112-203): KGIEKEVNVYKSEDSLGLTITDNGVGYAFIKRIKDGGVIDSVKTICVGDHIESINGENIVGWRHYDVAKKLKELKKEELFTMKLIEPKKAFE
Test: holdup assay
Parameters: key: below the threshold = too weak to quantify, mostly under pKd 3.1 to 4
Details: plain residues with an end cap or a label only (N-terminal biotin on a linker: ado-ado)

Row | Binder | pKd
14 | B1 | 3.56

Target: Inadl_6, Q8NI35
Sequence (Q8NI35 1058-1167): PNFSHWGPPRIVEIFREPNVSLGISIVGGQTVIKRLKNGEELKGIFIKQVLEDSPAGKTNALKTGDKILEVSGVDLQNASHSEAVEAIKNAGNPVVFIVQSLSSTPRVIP
Test: holdup assay
Parameters: key: below the threshold = too weak to quantify, mostly under pKd 3.1 to 4
Details: plain residues with an end cap or a label only (N-terminal biotin on a linker: ado-ado)

Row | Binder | pKd
15 | B1 | below the threshold

Target: MAGI2_6, Q86UL8
Sequence (Q86UL8 1141-1229): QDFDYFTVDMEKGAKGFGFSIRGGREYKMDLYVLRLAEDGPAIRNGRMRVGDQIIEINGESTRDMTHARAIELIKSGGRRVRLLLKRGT
Test: holdup assay
Parameters: key: below the threshold = too weak to quantify, mostly under pKd 3.1 to 4
Details: plain residues with an end cap or a label only (N-terminal biotin on a linker: ado-ado)

Row | Binder | pKd
16 | B1 | below the threshold

Target: MAGI1_1, Q96QZ7
Sequence (Q96QZ7 1-106): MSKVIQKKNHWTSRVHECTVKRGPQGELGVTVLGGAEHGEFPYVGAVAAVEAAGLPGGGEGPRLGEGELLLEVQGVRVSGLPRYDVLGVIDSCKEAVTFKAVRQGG
Test: holdup assay
Parameters: key: below the threshold = too weak to quantify, mostly under pKd 3.1 to 4
Details: plain residues with an end cap or a label only (N-terminal biotin on a linker: ado-ado)

Row | Binder | pKd
17 | B1 | 3.58

Target: T7, TX1BP3, O14907
Test: holdup assay
Parameters: key: below the threshold = too weak to quantify, mostly under pKd 3.1 to 4
Details: plain residues with an end cap or a label only (N-terminal biotin on a linker: ado-ado)

Row | Binder | pKd
18 | B1 | 3.74

Target: SNX27, Q96L92
Test: holdup assay
Parameters: key: below the threshold = too weak to quantify, mostly under pKd 3.1 to 4
Details: plain residues with an end cap or a label only (N-terminal biotin on a linker: ado-ado)

Row | Binder | pKd
19 | B1 | 4.31

Target: FRMPD4, Q14CM0
Sequence (Q14CM0 67-160): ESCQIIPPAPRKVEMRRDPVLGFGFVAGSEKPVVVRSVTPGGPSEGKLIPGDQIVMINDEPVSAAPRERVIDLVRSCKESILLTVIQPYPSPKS
Test: holdup assay
Parameters: key: below the threshold = too weak to quantify, mostly under pKd 3.1 to 4
Details: plain residues with an end cap or a label only (N-terminal biotin on a linker: ado-ado)

Row | Binder | pKd
20 | B1 | below the threshold

Target: MAGI2_5, Q86UL8
Sequence (Q86UL8 915-1017): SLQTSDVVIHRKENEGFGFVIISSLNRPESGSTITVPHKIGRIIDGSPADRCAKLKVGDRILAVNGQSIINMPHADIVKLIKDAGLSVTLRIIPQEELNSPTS
Test: holdup assay
Parameters: key: below the threshold = too weak to quantify, mostly under pKd 3.1 to 4
Details: plain residues with an end cap or a label only (N-terminal biotin on a linker: ado-ado)

Row | Binder | pKd
21 | B1 | 3.75

Target: T8, RADIL, Q96JH8
Test: holdup assay
Parameters: key: below the threshold = too weak to quantify, mostly under pKd 3.1 to 4
Details: plain residues with an end cap or a label only (N-terminal biotin on a linker: ado-ado)

Row | Binder | pKd
22 | B1 | 3.62

Target: PDZRN4_1, Q6ZMN7
Sequence (Q6ZMN7 213-318): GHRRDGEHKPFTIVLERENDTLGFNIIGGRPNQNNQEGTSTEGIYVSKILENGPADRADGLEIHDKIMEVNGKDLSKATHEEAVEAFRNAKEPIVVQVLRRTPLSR
Test: holdup assay
Parameters: key: below the threshold = too weak to quantify, mostly under pKd 3.1 to 4
Details: plain residues with an end cap or a label only (N-terminal biotin on a linker: ado-ado)

Row | Binder | pKd
23 | B1 | below the threshold

Target: Inadl_1, Q8NI35
Sequence (Q8NI35 113-229): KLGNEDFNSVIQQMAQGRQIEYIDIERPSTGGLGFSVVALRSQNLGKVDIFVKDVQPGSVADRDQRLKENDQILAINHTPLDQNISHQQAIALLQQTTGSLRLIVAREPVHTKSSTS
Test: holdup assay
Parameters: key: below the threshold = too weak to quantify, mostly under pKd 3.1 to 4
Details: plain residues with an end cap or a label only (N-terminal biotin on a linker: ado-ado)

Row | Binder | pKd
24 | B1 | below the threshold

Target: PICK1, Q9NRD5
Sequence (Q9NRD5 17-115): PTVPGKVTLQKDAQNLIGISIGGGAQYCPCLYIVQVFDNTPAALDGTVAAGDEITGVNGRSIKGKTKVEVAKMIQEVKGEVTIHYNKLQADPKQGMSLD
Test: holdup assay
Parameters: key: below the threshold = too weak to quantify, mostly under pKd 3.1 to 4
Details: plain residues with an end cap or a label only (N-terminal biotin on a linker: ado-ado)

Row | Binder | pKd
25 | B1 | below the threshold

Target: IL16_4, Q14005
Sequence (Q14005 1229-1329): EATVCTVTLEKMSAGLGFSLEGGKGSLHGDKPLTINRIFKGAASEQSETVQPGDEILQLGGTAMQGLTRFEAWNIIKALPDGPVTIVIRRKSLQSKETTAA
Test: holdup assay
Parameters: key: below the threshold = too weak to quantify, mostly under pKd 3.1 to 4
Details: plain residues with an end cap or a label only (N-terminal biotin on a linker: ado-ado)

Row | Binder | pKd
26 | B1 | below the threshold

Target: GRIP2_4, Q9C0E4
Sequence (Q9C0E4 446-548): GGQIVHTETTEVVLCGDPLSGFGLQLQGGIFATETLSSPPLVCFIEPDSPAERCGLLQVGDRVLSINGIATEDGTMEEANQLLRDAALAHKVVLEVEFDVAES
Test: holdup assay
Parameters: key: below the threshold = too weak to quantify, mostly under pKd 3.1 to 4
Details: plain residues with an end cap or a label only (N-terminal biotin on a linker: ado-ado)

Row | Binder | pKd
27 | B1 | below the threshold

Target: MAGI1_2, Q96QZ7
Sequence (Q96QZ7 456-580): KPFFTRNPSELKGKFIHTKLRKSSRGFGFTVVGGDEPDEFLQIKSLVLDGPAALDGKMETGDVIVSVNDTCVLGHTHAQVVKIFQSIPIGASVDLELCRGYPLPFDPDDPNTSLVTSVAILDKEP
Test: holdup assay
Parameters: key: below the threshold = too weak to quantify, mostly under pKd 3.1 to 4
Details: plain residues with an end cap or a label only (N-terminal biotin on a linker: ado-ado)

Row | Binder | pKd
28 | B1 | 4.96

Target: LNX1_1, Q8TBB1
Sequence (Q8TBB1 261-371): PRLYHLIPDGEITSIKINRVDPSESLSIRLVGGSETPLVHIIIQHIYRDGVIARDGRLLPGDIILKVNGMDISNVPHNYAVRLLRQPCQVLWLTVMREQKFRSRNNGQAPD
Test: holdup assay
Parameters: key: below the threshold = too weak to quantify, mostly under pKd 3.1 to 4
Details: plain residues with an end cap or a label only (N-terminal biotin on a linker: ado-ado)

Row | Binder | pKd
29 | B1 | 4.06
